# In paper PMC6007841:
# What was measured:
# [1] = molecular target: human melanocortin 1 receptor (human) (UniProt Q01726)
# [2] = molecular target: human melanocortin 3 receptor (human) (UniProt P41968)
# [3] = molecular target: human melanocortin 4 receptor (human) (UniProt P32245)
# [4] = molecular target: human melanocortin 5 receptor (human) (UniProt P33032)
# [5] = molecular target: mouse melanocortin 1 receptor (mouse) (UniProt Q01727)
# [6] = molecular target: mouse melanocortin 3 receptor (mouse) (UniProt P33033)
# mouse melanocortin 3 receptor (mouse), sequence (P33033 whole entry): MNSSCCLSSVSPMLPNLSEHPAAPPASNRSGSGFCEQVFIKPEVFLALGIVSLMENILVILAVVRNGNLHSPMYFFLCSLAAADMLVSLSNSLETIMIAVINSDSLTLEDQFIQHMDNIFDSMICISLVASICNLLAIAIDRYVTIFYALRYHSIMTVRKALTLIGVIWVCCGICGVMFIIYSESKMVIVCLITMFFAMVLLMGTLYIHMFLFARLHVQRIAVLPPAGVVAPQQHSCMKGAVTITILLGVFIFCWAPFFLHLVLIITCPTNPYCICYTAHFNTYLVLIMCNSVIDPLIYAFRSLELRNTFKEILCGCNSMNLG
# [7] = molecular target: mouse melanocortin 4 receptor (mouse) (UniProt P56450)
# mouse melanocortin 4 receptor (mouse), sequence (P56450 whole entry): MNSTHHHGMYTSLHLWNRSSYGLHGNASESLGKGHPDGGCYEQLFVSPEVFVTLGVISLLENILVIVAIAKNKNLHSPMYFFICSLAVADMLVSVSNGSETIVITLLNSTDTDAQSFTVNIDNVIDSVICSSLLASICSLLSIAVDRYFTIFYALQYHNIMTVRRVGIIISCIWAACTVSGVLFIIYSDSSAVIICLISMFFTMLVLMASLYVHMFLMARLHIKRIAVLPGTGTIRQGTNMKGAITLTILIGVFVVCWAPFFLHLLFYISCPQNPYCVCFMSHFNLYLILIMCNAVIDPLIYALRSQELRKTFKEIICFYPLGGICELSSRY
# [8] = molecular target: mouse melanocortin 5 receptor (mouse) (UniProt P41149)
# mouse melanocortin 5 receptor (mouse), sequence (P41149 whole entry): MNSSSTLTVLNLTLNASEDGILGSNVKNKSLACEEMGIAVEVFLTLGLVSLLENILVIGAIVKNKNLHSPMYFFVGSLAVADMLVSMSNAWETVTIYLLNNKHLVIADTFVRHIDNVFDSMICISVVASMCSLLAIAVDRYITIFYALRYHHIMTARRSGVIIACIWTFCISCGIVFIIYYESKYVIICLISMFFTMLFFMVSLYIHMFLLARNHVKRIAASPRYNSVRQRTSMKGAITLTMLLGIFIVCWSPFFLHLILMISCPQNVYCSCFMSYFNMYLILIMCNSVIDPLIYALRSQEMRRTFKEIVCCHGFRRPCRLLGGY
# mouse melanocortin 1 receptor (mouse), sequence (Q01727 whole entry): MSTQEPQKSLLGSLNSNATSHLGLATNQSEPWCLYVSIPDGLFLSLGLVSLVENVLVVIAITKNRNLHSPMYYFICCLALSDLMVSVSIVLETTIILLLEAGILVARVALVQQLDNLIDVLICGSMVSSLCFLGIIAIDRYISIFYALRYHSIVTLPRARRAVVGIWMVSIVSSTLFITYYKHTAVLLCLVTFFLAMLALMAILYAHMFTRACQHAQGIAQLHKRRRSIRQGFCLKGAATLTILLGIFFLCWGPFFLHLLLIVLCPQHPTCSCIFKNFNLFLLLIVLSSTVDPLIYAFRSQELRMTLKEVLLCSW
# human melanocortin 3 receptor (human), sequence (P41968 whole entry): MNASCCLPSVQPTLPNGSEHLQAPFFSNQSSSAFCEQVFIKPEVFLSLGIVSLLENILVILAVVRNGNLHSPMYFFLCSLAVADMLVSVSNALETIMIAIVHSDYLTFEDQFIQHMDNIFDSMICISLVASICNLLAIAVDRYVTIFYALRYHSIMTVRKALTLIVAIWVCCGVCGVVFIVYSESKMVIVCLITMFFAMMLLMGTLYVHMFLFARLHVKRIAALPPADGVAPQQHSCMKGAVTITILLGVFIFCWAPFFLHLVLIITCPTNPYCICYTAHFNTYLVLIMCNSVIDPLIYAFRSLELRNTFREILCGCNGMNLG
# human melanocortin 1 receptor (human), sequence (Q01726 whole entry): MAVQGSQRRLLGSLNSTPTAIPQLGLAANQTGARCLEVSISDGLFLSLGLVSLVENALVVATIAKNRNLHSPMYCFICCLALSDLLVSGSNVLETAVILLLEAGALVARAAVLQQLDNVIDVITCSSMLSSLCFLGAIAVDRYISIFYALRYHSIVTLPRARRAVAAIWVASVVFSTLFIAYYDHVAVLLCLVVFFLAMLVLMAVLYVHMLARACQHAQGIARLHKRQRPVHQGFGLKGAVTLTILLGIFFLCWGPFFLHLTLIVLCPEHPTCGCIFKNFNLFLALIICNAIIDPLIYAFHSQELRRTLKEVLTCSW
# human melanocortin 4 receptor (human), sequence (P32245 whole entry): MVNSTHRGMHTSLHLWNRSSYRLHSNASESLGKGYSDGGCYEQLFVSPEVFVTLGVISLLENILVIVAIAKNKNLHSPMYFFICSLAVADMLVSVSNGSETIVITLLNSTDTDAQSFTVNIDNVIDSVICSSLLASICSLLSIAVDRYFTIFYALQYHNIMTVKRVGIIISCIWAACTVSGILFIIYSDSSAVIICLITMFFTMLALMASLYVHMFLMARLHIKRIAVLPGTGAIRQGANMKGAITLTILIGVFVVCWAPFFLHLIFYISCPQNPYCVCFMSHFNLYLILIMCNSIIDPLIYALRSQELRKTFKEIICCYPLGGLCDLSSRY
# human melanocortin 5 receptor (human), sequence (P33032 whole entry): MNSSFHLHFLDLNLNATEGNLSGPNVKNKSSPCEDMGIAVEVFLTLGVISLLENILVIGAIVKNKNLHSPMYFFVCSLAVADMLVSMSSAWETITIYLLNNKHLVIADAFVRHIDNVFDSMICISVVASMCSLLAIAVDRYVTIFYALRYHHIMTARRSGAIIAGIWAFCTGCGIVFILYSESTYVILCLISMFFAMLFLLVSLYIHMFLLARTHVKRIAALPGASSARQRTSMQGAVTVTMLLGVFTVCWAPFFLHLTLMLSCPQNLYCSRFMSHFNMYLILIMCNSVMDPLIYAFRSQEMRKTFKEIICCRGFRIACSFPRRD
substance,measurement,setting,value
NDP-MSH (peptide),"cAMP agonist EC50 (AlphaScreen cAMP assay, HEK293 cells expressing the receptor)",[1],0.07 nM
same,"cAMP agonist EC50 (AlphaScreen cAMP assay, HEK293 cells expressing the receptor)",[2],0.3 nM
same,"cAMP agonist EC50 (AlphaScreen cAMP assay, HEK293 cells expressing the receptor)",[3],0.13 nM
same,"cAMP agonist EC50 (AlphaScreen cAMP assay, HEK293 cells expressing the receptor)",[4],0.4 nM
same,"cAMP agonist EC50 (AlphaScreen cAMP assay, HEK293 cells expressing the receptor)",[5],0.04 nM
same,"cAMP agonist EC50 (AlphaScreen cAMP assay, HEK293 cells expressing the receptor)",[6],0.33 nM
same,"cAMP agonist EC50 (AlphaScreen cAMP assay, HEK293 cells expressing the receptor)",[7],0.87 nM
same,"cAMP agonist EC50 (AlphaScreen cAMP assay, HEK293 cells expressing the receptor)",[8],0.41 nM
